Data taken from patent US20180362668.
Several values for one entry are separate records, joined by “and”; a condition that tells them apart may be missing. Equal entries are not always repeated.

Columns and labels:
[1] = target: T1, VhH-Fc fusion protein chain B with T366S + L368A + Y407V + F405K + E357A; test: non-reducing SDS-PAGE densitometry of Protein A-purified co-transfection product; chain A:chain B vectors 1:4
[2] = target: T1, VhH-Fc fusion protein chain B with …; test: non-reducing SDS-PAGE densitometry of Protein A-purified co-transfection product; chain A:chain B vectors 4:1
[3] = target: T2, VhH-Fc fusion protein chain B with T366S + L368A + Y407V + K409A + E357A; test: non-reducing SDS-PAGE densitometry of Protein A-purified co-transfection product; chain A:chain B vectors 1:4
[4] = target: T2, VhH-Fc fusion protein chain B with …; test: non-reducing SDS-PAGE densitometry of Protein A-purified co-transfection product; chain A:chain B vectors 4:1
[5] = target: Fc protein chain B with D356C + T366S + L368A + Y407V; test: non-reducing SDS-PAGE of Protein A-purified co-transfection product; chain A:chain B vectors 1:4
[6] = target: Fc protein chain B with D356C + T366S + L368A + Y407V; test: non-reducing SDS-PAGE of Protein A-purified co-transfection product; chain A:chain B vectors 4:1
[7] = target: Fc protein chain B with D356C + T366S + L368A + Y407V + F405K; test: non-reducing SDS-PAGE densitometry of Protein A-purified co-transfection product; chain A:chain B vectors 1:1
[8] = target: Fc protein chain B with D356C + T366S + L368A + Y407V; test: as above
[9] = target: T3, VhH-Fc fusion protein chain B with D356C + T366S + L368A + Y407V; test: non-reducing SDS-PAGE densitometry of Protein A-purified co-transfection product; chain A:chain B vectors 1:4
[10] = target: T3, VhH-Fc fusion protein chain B with …; test: non-reducing SDS-PAGE densitometry of Protein A-purified co-transfection product; chain A:chain B vectors 4:1
[11] = target: T4, VhH-Fc fusion protein chain B with T366S + L368A + Y407V + K409A + K392D; test: non-reducing SDS-PAGE densitometry of Protein A-purified co-transfection product; chain A:chain B vectors 1:4
[12] = target: T4, VhH-Fc fusion protein chain B with …; test: non-reducing SDS-PAGE densitometry of Protein A-purified co-transfection product; chain A:chain B vectors 4:1
[13] = target: T5, VhH-Fc fusion protein chain B with T366S + L368G + Y407A + K409A; test: non-reducing SDS-PAGE densitometry of Protein A-purified co-transfection product; chain A:chain B vectors 1:4
[14] = target: T5, VhH-Fc fusion protein chain B with …; test: non-reducing SDS-PAGE densitometry of Protein A-purified co-transfection product; chain A:chain B vectors 4:1

B1: ScFv-Fc fusion protein chain A with T366W + K409A + Y349D + S354D (protein)
chain: EVQLLESGGGVVQPGRSLRLSCIASGFTFSSYPMTWVRQAPGKGLEWVASISYDGSYKYKADSMKGRLTISRDNSKNTLYLEMNSLTAEDTAVYYCARTAFFNAYDFWGQGTLVTVSSASTKGPSVGGGGSGGGGSEIVMTQSPATLSVSPGERATLSCRASQSVRSNLAWYQQKPGQAPRLLIYAASTRATGIPARFSGSGSGTEFTLTISSLQSEDFAVYYCQQYNEWFRTSGQGTKVEIKRDKTHTCPPCPAPELLGGPSVFLFPPKPKDTLMISRTPEVTCVVVDVSHENPEVKFNWYVDGVEVHNAKTKPREEQYNSTYRVVSVLTVLHQDWLNGKEYKCKVSNKALPAPIEKTISKAKGQPREPQVDTLPPDRDELTKNQVSLWCLVKGFYPSDIAVEWESNGQPENNYKTTPPVLDSDGSFFLYSALTVDKSRWQQGNVFSCSVMHEALHNHYTQKSLSLSPGK
Question: What does the source list for B1?
Answer: ScFv-Fc/VhH-Fc heterodimer (%) [1]: 64%; ScFv-Fc/VhH-Fc heterodimer (%) [2]: 61%

B2: ScFv-Fc fusion protein chain A with T366W + F405K + Y349D + S354D (protein)
chain: EVQLLESGGGVVQPGRSLRLSCIASGFTFSSYPMTWVRQAPGKGLEWVASISYDGSYKYKADSMKGRLTISRDNSKNTLYLEMNSLTAEDTAVYYCARTAFFNAYDFWGQGTLVTVSSASTKGPSVGGGGSGGGGSEIVMTQSPATLSVSPGERATLSCRASQSVRSNLAWYQQKPGQAPRLLIYAASTRATGIPARFSGSGSGTEFTLTISSLQSEDFAVYYCQQYNEWFRTSGQGTKVEIKRDKTHTCPPCPAPELLGGPSVFLFPPKPKDTLMISRTPEVTCVVVDVSHENPEVKFNWYVDGVEVHNAKTKPREEQYNSTYRVVSVLTVLHQDWLNGKEYKCKVSNKALPAPIEKTISKAKGQPREPQVDTLPPDRDELTKNQVSLWCLVKGFYPSDIAVEWESNGQPENNYKTTPPVLDSDGSFKLYSKLTVDKSRWQQGNVFSCSVMHEALHNHYTQKSLSLSPGK
Question: For B2, which ScFv-Fc/VhH-Fc heterodimer (%) [3] is on record?
Answer: 86%

Question: What about the ScFv-Fc/VhH-Fc heterodimer (%) [4] of the same protein?
Answer: 61%

B3: ScFv-Fc fusion protein chain A with Y349C + T366W (protein)
chain: EVQLLESGGGVVQPGRSLRLSCIASGFTFSSYPMTWVRQAPGKGLEWVASISYDGSYKYKADSMKGRLTISRDNSKNTLYLEMNSLTAEDTAVYYCARTAFFNAYDFWGQGTLVTVSSASTKGPSVGGGGSGGGGSEIVMTQSPATLSVSPGERATLSCRASQSVRSNLAWYQQKPGQAPRLLIYAASTRATGIPARFSGSGSGTEFTLTISSLQSEDFAVYYCQQYNEWFRTSGQGTKVEIKRDKTHTCPPCPAPELLGGPSVFLFPPKPKDTLMISRTPEVTCVVVDVSHENPEVKFNWYVDGVEVHNAKTKPREEQYNSTYRVVSVLTVLHQDWLNGKEYKCKVSNKALPAPIEKTISKAKGQPREPQVCTLPPSRDELTKNQVSLWCLVKGFYPSDIAVEWESNGQPENNYKTTPPVLDSDGSFFLYSKLTVDKSRWQQGNVFSCSVMHEALHNHYTQKSLSLSPGK
Question: What does the source list for B3?
Answer: ScFv-Fc/Fc heterodimer (%) [5]: 44%; ScFv-Fc/Fc heterodimer (%) [6]: 42%

B4: ScFv-Fc fusion protein chain A with Y349C + T366W + K409A + L368E (protein)
chain: EVQLLESGGGVVQPGRSLRLSCIASGFTFSSYPMTWVRQAPGKGLEWVASISYDGSYKYKADSMKGRLTISRDNSKNTLYLEMNSLTAEDTAVYYCARTAFFNAYDFWGQGTLVTVSSASTKGPSVGGGGSGGGGSEIVMTQSPATLSVSPGERATLSCRASQSVRSNLAWYQQKPGQAPRLLIYAASTRATGIPARFSGSGSGTEFTLTISSLQSEDFAVYYCQQYNEWFRTSGQGTKVEIKRDKTHTCPPCPAPELLGGPSVFLFPPKPKDTLMISRTPEVTCVVVDVSHENPEVKFNWYVDGVEVHNAKTKPREEQYNSTYRVVSVLTVLHQDWLNGKEYKCKVSNKALPAPIEKTISKAKGQPREPQVCTLPPSRDELTKNQVSLWCEVKGFYPSDIAVEWESNGQPENNYKTTPPVLDSDGSFFLYSALTVDKSRWQQGNVFSCSVMHEALHNHYTQKSLSLSPGK
Question: Which ScFv-Fc/Fc heterodimer (%) [7] does the source give for B4 here?
Answer: 30%

B5: ScFv-Fc fusion protein chain A with T366W + K409A + Y349D (protein)
chain: EVQLLESGGGVVQPGRSLRLSCIASGFTFSSYPMTWVRQAPGKGLEWVASISYDGSYKYKADSMKGRLTISRDNSKNTLYLEMNSLTAEDTAVYYCARTAFFNAYDFWGQGTLVTVSSASTKGPSVGGGGSGGGGSEIVMTQSPATLSVSPGERATLSCRASQSVRSNLAWYQQKPGQAPRLLIYAASTRATGIPARFSGSGSGTEFTLTISSLQSEDFAVYYCQQYNEWFRTSGQGTKVEIKRDKTHTCPPCPAPELLGGPSVFLFPPKPKDTLMISRTPEVTCVVVDVSHENPEVKFNWYVDGVEVHNAKTKPREEQYNSTYRVVSVLTVLHQDWLNGKEYKCKVSNKALPAPIEKTISKAKGQPREPQVDTLPPSRDELTKNQVSLWCLVKGFYPSDIAVEWESNGQPENNYKTTPPVLDSDGSFFLYSALTVDKSRWQQGNVFSCSVMHEALHNHYTQKSLSLSPGK
Question: B5 was tested. Which ScFv-Fc/VhH-Fc heterodimer (%) [1] did it give?
Answer: 60%

Question: And the ScFv-Fc/VhH-Fc heterodimer (%) [2]?
Answer: 49%

B6: ScFv-Fc fusion protein chain A with Y349C + T366W + F405K (protein)
chain: EVQLLESGGGVVQPGRSLRLSCIASGFTFSSYPMTWVRQAPGKGLEWVASISYDGSYKYKADSMKGRLTISRDNSKNTLYLEMNSLTAEDTAVYYCARTAFFNAYDFWGQGTLVTVSSASTKGPSVGGGGSGGGGSEIVMTQSPATLSVSPGERATLSCRASQSVRSNLAWYQQKPGQAPRLLIYAASTRATGIPARFSGSGSGTEFTLTISSLQSEDFAVYYCQQYNEWFRTSGQGTKVEIKRDKTHTCPPCPAPELLGGPSVFLFPPKPKDTLMISRTPEVTCVVVDVSHENPEVKFNWYVDGVEVHNAKTKPREEQYNSTYRVVSVLTVLHQDWLNGKEYKCKVSNKALPAPIEKTISKAKGQPREPQVCTLPPSRDELTKNQVSLWCLVKGFYPSDIAVEWESNGQPENNYKTTPPVLDSDGSFKLYSKLTVDKSRWQQGNVFSCSVMHEALHNHYTQKSLSLSPGK
Question: Which results are given for B6?
Answer: ScFv-Fc/Fc heterodimer (%) [5]: 49%; ScFv-Fc/Fc heterodimer (%) [6]: 66%; ScFv-Fc/Fc heterodimer (%) [8]: 60% and 70%; ScFv-Fc/VhH-Fc heterodimer (%) [9]: 39%; ScFv-Fc/VhH-Fc heterodimer (%) [10]: 55%

B7: ScFv-Fc fusion protein chain A with T366W + F405K + D399S (protein)
chain: EVQLLESGGGVVQPGRSLRLSCIASGFTFSSYPMTWVRQAPGKGLEWVASISYDGSYKYKADSMKGRLTISRDNSKNTLYLEMNSLTAEDTAVYYCARTAFFNAYDFWGQGTLVTVSSASTKGPSVGGGGSGGGGSEIVMTQSPATLSVSPGERATLSCRASQSVRSNLAWYQQKPGQAPRLLIYAASTRATGIPARFSGSGSGTEFTLTISSLQSEDFAVYYCQQYNEWFRTSGQGTKVEIKRDKTHTCPPCPAPELLGGPSVFLFPPKPKDTLMISRTPEVTCVVVDVSHENPEVKFNWYVDGVEVHNAKTKPREEQYNSTYRVVSVLTVLHQDWLNGKEYKCKVSNKALPAPIEKTISKAKGQPREPQVYTLPPSRDELTKNQVSLWCLVKGFYPSDIAVEWESNGQPENNYKTTPPVLSSDGSFKLYSKLTVDKSRWQQGNVFSCSVMHEALHNHYTQKSLSLSPGK
Question: For B7, which ScFv-Fc/VhH-Fc heterodimer (%) [11] is on record?
Answer: 69%

Question: What about the ScFv-Fc/VhH-Fc heterodimer (%) [12] of the same protein?
Answer: 66%

B8: ScFv-Fc fusion protein chain A with T366W + F405K (protein)
chain: EVQLLESGGGVVQPGRSLRLSCIASGFTFSSYPMTWVRQAPGKGLEWVASISYDGSYKYKADSMKGRLTISRDNSKNTLYLEMNSLTAEDTAVYYCARTAFFNAYDFWGQGTLVTVSSASTKGPSVGGGGSGGGGSEIVMTQSPATLSVSPGERATLSCRASQSVRSNLAWYQQKPGQAPRLLIYAASTRATGIPARFSGSGSGTEFTLTISSLQSEDFAVYYCQQYNEWFRTSGQGTKVEIKRDKTHTCPPCPAPELLGGPSVFLFPPKPKDTLMISRTPEVTCVVVDVSHENPEVKFNWYVDGVEVHNAKTKPREEQYNSTYRVVSVLTVLHQDWLNGKEYKCKVSNKALPAPIEKTISKAKGQPREPQVYTLPPSRDELTKNQVSLWCLVKGFYPSDIAVEWESNGQPENNYKTTPPVLDSDGSFKLYSKLTVDKSRWQQGNVFSCSVMHEALHNHYTQKSLSLSPGK
Question: How did the ScFv-Fc/VhH-Fc heterodimer (%) [13] turn out when B8 was run?
Answer: 93%

Question: And the ScFv-Fc/VhH-Fc heterodimer (%) [14]?
Answer: 77%
